The text below walks through data of patent US20150268247A1, “Assay for Screening of Anti-Viral Compounds That Inhibit Specific Interaction Interfaces Between Cullin5 and an ElonginB/ElonginC/ CBF-beta/HIV-1 Vif Complex” (UNIVERSITY OF ROCHESTER, priority 2012, published 2015).

This experiment concerns the target T1, Cul5(N) (Homo sapiens, UniProt Q93034, L345D/V341R).
T1 construct: GST with 3C protease site (N, cleaved yes); made in house; host or cells: E. coli BL21(DE3), as for VifC/EloB/C
T1 sequence (Q93034 with tags, fused parts or gaps V341R/L345D): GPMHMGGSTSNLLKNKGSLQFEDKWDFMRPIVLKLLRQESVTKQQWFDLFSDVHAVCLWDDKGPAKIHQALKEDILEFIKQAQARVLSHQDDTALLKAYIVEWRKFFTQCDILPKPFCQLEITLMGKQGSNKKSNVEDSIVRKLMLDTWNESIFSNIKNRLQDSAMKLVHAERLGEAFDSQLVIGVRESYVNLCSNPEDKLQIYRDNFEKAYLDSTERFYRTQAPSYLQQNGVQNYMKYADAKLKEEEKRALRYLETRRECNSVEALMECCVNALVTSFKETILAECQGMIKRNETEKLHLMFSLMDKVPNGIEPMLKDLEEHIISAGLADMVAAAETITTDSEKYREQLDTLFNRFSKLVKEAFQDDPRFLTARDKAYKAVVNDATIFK
The experiment is described as follows: ITC titration of Cul5(N) to CBFβ alone. Type of experiment: binding. The settings on record: FIG. 4D. Background: In ITC the heat of successive injections is recorded.

Procedure: ITC experiments were conducted with a VP-ITC isothermal titration calorimeter (GE Healthcare) at temperatures ranging from 293.15 to 308.15 K using a reference power of 15 μcal s^−1 and a 307 rpm stirring rate. Purified protein was dialyzed for 8 h at 4° C. against 1300 volumes of ITC buffer A [0.125 M NaCl, 0.02 M HEPES (pH 7.4), 0.0002 M TCEP] or ITC buffer B [0.125 M NaCl, 0.02 M phosphate (pH 7.4), 0.0002 M TCEP]. Twenty-nine 10 μl aliquots of protein in the syringe were injected into the sample cell at time intervals ranging from 240 to 360 s. The concentration of protein in the syringe ranged from 120 to 210 μM, while the concentration of protein in the sample cell ranged from 12 to 27 μM. Errors in the thermodynamic parameters were obtained from the standard deviation resulting from average values with at least two replicates. […] As such, for all protein-into-protein experiments, the heats of injection were accounted for by subtracting the average heat of the last three injections from each data point of an experiment. All data were fit with the “One Set of Sites” curve-fitting model to determine the parameters Ka, n, and AH using the Origin software v7.0 (GE Healthcare). ΔG was calculated from ΔG=−RT ln Ka, where R=1.9872 cal K^−1 mol^−1, and T=absolute temperature (Kelvin). ΔS was calculated from the equation, ΔG=ΔH−TΔS.

B1: CBFβ: Recombinant human core-binding factor β subunit isoform 2 (protein, listed as Homo sapiens)
chain: MGHHHHHHLEVLFQGPPRVVPDQRSKFENEEFFRKLSRECEIKYTGFRDRPHEERQARFQNACRDGRSEIAFVATGTNLSLQFFPASWQGEQRQTPSREYVDLEREAGKVYLKAPMILNGVCVIWKGWIDLQRLDGMGCLEFDEERAQQEDALAQQAFEEARRRTREFEDRDRSHREEMEVRVSQLLAVTGKKTTRP
In the case of B1, the “interaction of CBFβ with Cul5(N) alone” value was “did not interact”.
